These results are taken from article PMC280649 (BMC Biochemistry, 2003).

Several values for one entry are separate records, joined by “and”; a condition that tells them apart may be missing. Identical values can stand only once.

As a reminder, the Kd is the equilibrium constant for the complex coming apart. One may read the koff as the first-order rate constant of dissociation. Read a low koff as slow dissociation.

One series addresses CAR (Homo sapiens) (UniProt P78310). The settings on record: cited from earlier work.
Another series deals with CD31 (Homo sapiens) (UniProt P16284). As to conditions: cited from earlier work.
The next series deals with CD150 (Homo sapiens) (UniProt Q13291). Kind of series: SPR. As to conditions: cited from earlier work.
In another series the target is NCAM (UniProt P13591). The settings on record: cited from earlier work.
Series [1] concerns the molecule itself. Kind of series: SPR. (In general: Surface plasmon resonance follows binding to a sensor surface in real time, without labels.)
Series [2] deals with the molecule itself. Kind of series: SPR. This is another data set of the same source.

Turning to CAR (from UniProt P78310), in the series with CAR (Homo sapiens), the Kd was 16 µM.

On to CD31 (from UniProt P16284), for which the Kd in the series with CD31 (Homo sapiens) was 12.5 µM. CD150 (from UniProt Q13291): in the series with CD150 (Homo sapiens), the Kd is 200 µM.

NCAM (from UniProt P13591): the Kd with NCAM was 100 µM.

B1: mCD147d0-2rCD4d3+4 (mouse CD147 domains 0 to 2 fused to rat CD4 domains 3 and 4) (domain or fragment, UniProt P18572 22-325, looked up)
chain: AAGFLKAPLSQERWAGGSVVLHCEAVGSPIPEIQWWFEGNAPNDSCSQLWDGARLDRVHIHAAYRQHAASSLSVDGLTAEDTGTYECRASSDPDRNHLTRPPRVKWVRAQASVVVLEPGTIQTSVQEVNSKTQLTCSLNSSGVDIVGHRWMRGGKVLQEDTLPDLHTKYIVDADDRSGEYSCIFLPEPVGRSEINVEGPPRIKVGKKSEHSSEGELAKLVCKSDASYPPITDWFWFKTSDTGEEEAITNSTEANGKYVVVSTPEKSQLTISNLDVNVDPGTYVCNATNAQGTTRETISLRVRSR
modifications: biotin on the C-terminal biotinylation sequence (BirA enzyme) in the immobilised copy; the soluble copy was unbiotinylated
In “SPR [1]”, B1 showed a koff of 0.7 s⁻¹ and a t1/2 of 1 s. For the same molecule, in the series “SPR [2]”, the Kd was 39 µM and 35 µM.
